Laboratory results published in paper PMC3017110.

T1: QK RNA-binding domain (recombinant, purified) (UniProt Q9QYS9 1-213)
T1 sequence: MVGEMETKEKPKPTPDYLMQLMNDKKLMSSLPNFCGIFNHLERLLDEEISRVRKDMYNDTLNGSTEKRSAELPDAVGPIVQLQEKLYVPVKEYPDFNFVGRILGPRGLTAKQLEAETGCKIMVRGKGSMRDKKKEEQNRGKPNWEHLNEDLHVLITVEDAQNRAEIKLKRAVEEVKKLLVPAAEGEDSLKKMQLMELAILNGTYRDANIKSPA


Tests used:
[1] = biological target: T1, QK RNA-binding domain (recombinant, …); assay: EMSA and fluorescence polarization; apparent Kd; EMSA on non-denaturing 5% polyacrylamide slab gel in 1x TBE; binding buffer, salt, pH and temperature not printed (per ref 64)
[2] = biological target: T1, QK RNA-binding domain (recombinant, …); assay: competition; competes with Mbp QSBE; Kc,app value only in figure; EMSA on non-denaturing 5% polyacrylamide slab gel in 1x TBE; binding buffer, salt, pH and temperature not printed (per ref 64)
[3] = biological target: T1, QK RNA-binding domain (recombinant, …); assay: EMSA; three fragments; does not bind with high affinity; EMSA on non-denaturing 5% polyacrylamide slab gel in 1x TBE; binding buffer, salt, pH and temperature not printed (per ref 64)

| Binder | Kd [1] [nM] | also measured |
| --- | --- | --- |
| CAGUGCCCAUUGGUACACACUAACCUCG (ssRNA) [Mbp QSBE] | 44 ± 2 | – |
| UGUGACUAAUUG (ssRNA) [Hnrnpa1 12-nt RNA competitor] | – | binding result [2]: binds |
| GCUCAUUCUUUGGAGCGGGUGUGUCAUU (ssRNA) [Plp1 ESE fragments (three overlapping)] | – | binding result [3]: no binding |
| AACUCCAGGACUGUAUUUGUGACUAAUUGU (ssRNA) [Hnrnpa1 3' UTR QSBE WT, 30 nt] | 36 ± 2 | – |
